# Results published in US6534267 (dated 2003).
# B1: 25-kDa Smac (second mitochondria-derived activator of caspase), native mature protein from HeLa cells (other)
# chain: AVPIAQKSEPHSLSSEALMRRAVSLVTDSTSTFLSQTTYALIEAITEYTKAVYTLTSLYRQYTSLLGKMNSEEEDEVWQVIIGARAEMTSKHQEYLKLETTWMTAVGLSEMAAEAAYQTGADQASITARNHIQLVKLQVEEVHQLSRKAETKLAEAQIEELRQKTQEEGEERAESEQEAYLRED
# notes: The HeLa protein is also about 25 kDa; Gel filtration points to a homotetramer; also called 25-kDa protein; native Smac
# Biological target: the molecule itself
# Test: gel filtration of purified native Smac (self-association)
protein,measurement,value
B1,binding result,binds
